Reference: the supplement of paper PMC10567573

B1: TRIM43 (parent)
chain: RAQMIRNEYRKLHPVLHKEEKQHL
B2: EHMT1 (parent)
chain: EEINKNISDFGRQQLLPPFPSLHQ

Variants of: B1
Test: protein stability index of a GFP-peptide fusion (GPS, HEK-293T) (PSI 1-6); higher = more stable
Conditions: c terminus: a fixed tail appended
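Note: lentivirally expressed fusions sorted by FACS into six bins by GFP to DsRed ratio, PSI derived from sequencing read proportions per bin multiplied by bin number.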

Protein stability index of substitutions, site by site:
R1: E 3.29
L16: R 3.84; N 3.95; M 3.94; Q 3.85; P 3.92; T 3.57; F 3.04; Y 2.52; A 3.52; W 2.3; C 2.71; G 3.1; K 3.85; D 4.12; S 3.65; V 4.07; E 4.04; I 3.31; H 3.2
H17: C 2.58; K 4.15; A 2.37; Q 3.07; S 2.67; L 2.93; D 3.5; E 4.14; F 2.53; P 3.42; M 2.81; N 3.28; I 2.8; R 3.79; G 3.56
R6: F 2.44; Q 3.63; H 3.54; A 3.07; T 3.89; E 3.48; V 3.52; L 2.15; G 3.96; W 1.77; S 3.52; C 3.67; K 3.39; Y 2.57; P 3.57; I 1.89; M 2.19; D 4.3; N 4.15
V15: C 3; E 3.5; S 2.94; M 3.67; P 3.32; Y 2.7; T 3.13; N 3.65; G 3.88; K 3.29; W 2.5; I 3.09; R 3.37; A 3.39; L 2.63; Q 3.17; D 3.64; H 2.98
R10: S 3.71; C 3.19; N 3.66; M 2.91; K 2.91; V 3.73; I 3.75; D 4.21; A 3.08; G 3.26; Q 3.84; H 3.39; E 4.09; W 2.99; L 3.38; F 3.4; Y 3.31; P 3.76; T 3.85
Y9: H 4.12; T 4.08; E 3.96; N 3.79; C 3.79; I 3.03; Q 4.31; V 3.91; G 3.96; K 3.65; W 2.44; R 3.84; P 3.93; M 3.97; D 4.24; F 3.35; L 3.25; S 3.46; A 4.04
A2: F 1.95; D 3.51; L 2.96; C 3.35; Y 3.13; S 2.99; V 2.78; G 3.61; E 4.26; N 3.18; T 3.17; P 3.84; I 2.14; R 3.76; H 3.26; M 2.91; W 2.27; K 3.2; Q 3.09
L12: Q 3.36; W 2.96; N 4.16; E 4.06; H 4.27; Y 3.75; K 3.7; C 3.03; G 4.18; T 3.85; S 4.43; V 2.97; A 3.67; D 4.02; M 2.86; R 3.94; I 3.07; F 2.94; P 3.96

Variants of: B2
Test: as above
Conditions: c terminus: a fixed tail appended

Protein stability index: each site, then its substitutions
I3: K 3.02
Q13: A 3.2; C 2.06; T 2.56
E1: A 2.47
S8: N 2.46
L16: T 3.5
K5: I 2.51
F10: P 3.31; S 3.4
L22: R 3.62
D9: E 2.5
Q14: D 2.84
P20: H 2.69
L15: Y 2.97; F 2.31
I7: S 2.83
N4: S 2.45
F19: D 4.42
